Source: patent US20090092617A1 (K BENHAVNS UNIVERSITET, published 2009)
Where no end group is shown, it is not given here.

Legend:
[1] = molecular target: T1, Human ErbB2 extracellular part fused to Fc of human IgG1 (human, UniProt P04626 23-652); assay: SPR (BIAcore 2000), peptide immobilized on CM5 chip, receptor protein injected
T1 construct: extracellular domain; also called ErbB2-Fc chimeric protein; not shown: Fc region of human IgG1
Experimental: (§1) Binding analyses were performed with the surface plasmon resonance (SPR)-based biosensor instrument BIAcore2000 (BIAcore AB, Uppsala, Sweden), at 25° C. using ready-made HBS-EP buffer (BIAcore AB) as running buffer. Peptides were immobilized on the surface of a CM5 sensor chip (BIAcore AB) using an amine coupling kit (Biosensor AB, Uppsala, Sweden) according to the manufacturer's instructions, at a flow rate of 5 μl/min. Briefly, carboxyl groups on the sensor chip surface were activated by injection of 35 μl activation solution followed by injection of peptide (50 μg/ml peptide in HBS-EP buffer, pH 7.4) until the desired level of immobilized peptide was reached. Unreacted peptide was washed out and unreacted activated groups were blocked by the injection of 35 μl 1 M ethanolamine. The final immobilization response was app. 7000-9000 resonance units (RU). A reference surface was generated simultaneously under the same conditions but without peptide injection and used as a blank chip control. ErbB receptor proteins were injected at various concentrations at a flow rate of 20 μl/min, and binding to the peptides immobilized on the chip was measured in real-time. The curve corresponding to the difference between signals on flow cells with immobilized peptide and the signal on the blank flow cell was used for analysis. Each sensorgram consists of an association phase (the first 320 seconds), reflecting binding of the injected receptor to the peptide, and a dissociation phase (app. 300 seconds), during which running buffer is passed over the chip and the bound receptor is being washed off. Data were analyzed by nonlinear curve fitting using the manufacturer' software. The recombinant protein comprising the whole extracellular part of human ErbB1 (also termed the EGF receptor, EGFR) was purchased from Research Diagnostics (Concord, Mass., USA). Recombinant proteins comprising the Fc region of human IgG₁ and the Fc protein fused to the extracellular parts of human ErbB2, ErbB3 or ErbB4 were purchased from R&D Systems Europe (Abingdon, UK).
(§2) The binding of three Inherbin peptides to all four members of the ErbB receptor family was determined using surface plasmon resonance (SPR) binding analysis (table 1).

[2] = molecular target: T2, Human ErbB4 extracellular part fused to Fc of human IgG1 (human, UniProt Q15303 26-651); assay: as above
T2 construct: extracellular domain; also called ErbB4-Fc chimeric protein; not shown: Fc region of human IgG1
T2 sequence (looked up): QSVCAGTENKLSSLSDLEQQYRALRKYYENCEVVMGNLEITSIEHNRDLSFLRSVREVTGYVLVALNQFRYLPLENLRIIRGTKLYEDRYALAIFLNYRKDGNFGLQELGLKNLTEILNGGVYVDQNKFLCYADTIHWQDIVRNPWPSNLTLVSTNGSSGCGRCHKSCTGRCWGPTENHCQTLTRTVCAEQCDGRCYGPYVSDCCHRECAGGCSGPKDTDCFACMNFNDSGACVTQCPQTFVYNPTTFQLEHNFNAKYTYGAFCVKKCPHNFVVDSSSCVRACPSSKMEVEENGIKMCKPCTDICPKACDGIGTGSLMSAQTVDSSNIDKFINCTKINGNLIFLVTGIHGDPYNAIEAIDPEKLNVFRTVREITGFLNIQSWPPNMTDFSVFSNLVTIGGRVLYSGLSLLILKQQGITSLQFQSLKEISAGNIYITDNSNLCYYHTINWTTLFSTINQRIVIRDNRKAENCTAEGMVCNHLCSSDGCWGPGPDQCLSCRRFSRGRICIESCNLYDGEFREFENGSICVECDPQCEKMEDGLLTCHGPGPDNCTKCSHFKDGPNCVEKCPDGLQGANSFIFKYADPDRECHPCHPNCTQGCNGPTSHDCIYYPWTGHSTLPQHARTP
Experimental: as §1, §2

[3] = molecular target: T3, Recombinant protein comprising the whole extracellular part of human ErbB1 (human, UniProt P00533 25-645); assay: SPR (BIAcore 2000), peptide dendrimer immobilized, receptor ECD injected; mean ± SEM, SEM 4.9e-9 in r8c2
T3 construct: extracellular domain; also called EGF receptor; EGFR
Experimental: (§3) Binding analyses were performed with the surface plasmon resonance (SPR)-based biosensor instrument BIAcore2000 (BIAcore AB, Uppsala, Sweden), at 25° C. using ready-made HBS-EP buffer (BIAcore AB) as running buffer. Peptides were immobilized on the surface of a CM5 sensor chip (BIAcore AB) using an amine coupling kit (Biosensor AB, Uppsala, Sweden) according to the manufacturer's instructions, at a flow rate of 5 μl/min. Briefly, carboxyl groups on the sensor chip surface were activated by injection of 35 μl activation solution followed by injection of peptide (50 μg/ml peptide in HBS-EP buffer, pH 7.4) until the desired level of immobilized peptide was reached. Unreacted peptide was washed out and unreacted activated groups were blocked by the injection of 35 μl 1 M ethanolamine. The final immobilization response was app. 7000-9000 resonance units (RU). […] ErbB receptor proteins were injected at various concentrations at a flow rate of 20 μl/min, and binding to the peptides immobilized on the chip was measured in real-time. […] Data were analyzed by nonlinear curve fitting using the manufacturer' software. […]
as §2

[4] = molecular target: T4, Human ErbB3 extracellular part fused to Fc of human IgG1 (human, UniProt P21860 20-643); assay: SPR (BIAcore 2000), peptide dendrimer immobilized, receptor ECD-Fc injected; mean ± SEM, SEM 8e-9 in r11c2
T4 construct: extracellular domain; also called ErbB3-Fc chimeric protein; not shown: Fc region of human IgG1
Experimental: as §3, §2

[5] = molecular target: T4, Human ErbB3 extracellular part fused to …; assay: SPR (BIAcore 2000), peptide dendrimer immobilized, receptor ECD-Fc injected; mean ± SEM
Experimental: as §1, §2

[6] = molecular target: T3, Recombinant protein comprising the …; assay: SPR (BIAcore 2000), peptide dendrimer immobilized, receptor ECD injected; mean ± SEM
Experimental: as §3, §2

[7] = molecular target: T1, Human ErbB2 extracellular part fused to …; assay: SPR (BIAcore 2000), peptide dendrimer immobilized, receptor ECD-Fc injected; mean ± SEM
Experimental: as §1, §2

[8] = molecular target: T2, Human ErbB4 extracellular part fused to …; assay: as above
Experimental: as §1, §2

T4 sequence (P21860 20-643): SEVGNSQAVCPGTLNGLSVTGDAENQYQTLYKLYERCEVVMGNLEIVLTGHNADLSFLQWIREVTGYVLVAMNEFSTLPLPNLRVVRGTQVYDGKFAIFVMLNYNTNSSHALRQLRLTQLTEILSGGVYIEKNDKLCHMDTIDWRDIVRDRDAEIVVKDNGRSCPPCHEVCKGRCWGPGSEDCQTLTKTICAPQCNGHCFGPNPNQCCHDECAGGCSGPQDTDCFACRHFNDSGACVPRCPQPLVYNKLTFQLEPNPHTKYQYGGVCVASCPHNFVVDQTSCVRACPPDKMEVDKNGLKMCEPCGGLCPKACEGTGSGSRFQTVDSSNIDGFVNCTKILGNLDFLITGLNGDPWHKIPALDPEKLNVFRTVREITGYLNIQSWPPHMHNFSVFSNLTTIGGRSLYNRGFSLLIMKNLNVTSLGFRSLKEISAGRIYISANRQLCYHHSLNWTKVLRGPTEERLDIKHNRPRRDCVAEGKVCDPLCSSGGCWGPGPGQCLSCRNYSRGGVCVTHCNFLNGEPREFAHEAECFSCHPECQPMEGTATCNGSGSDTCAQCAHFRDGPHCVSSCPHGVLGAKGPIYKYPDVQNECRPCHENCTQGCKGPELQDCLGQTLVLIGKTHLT

Binder | binding result [1] | binding result [2] | Kd [3] | Kd [4] | Kd [5] | Kd [6] | Kd [7] | Kd [8]
MLYNPTTYQMDVNPEGK (also: tetrameric dendrimer: four monomers coupled to a lysine backbone, It was immobilized on a CM5 chip by amine coupling; also called 1DL) [Inherbin1 peptide, tetrameric dendrimer] | no binding | no binding | 13.6 nM | 49 nM | – | – | – | –
LVYNKLTFQLEPNPHTK (also: tetrameric dendrimer: four monomers coupled to a lysine backbone, also called 3DL) [Inherbin3d, tetrameric dendrimer of the Inherbin3 peptide] | no binding (tested: 32 µM (concentration given for FIG. 1)) | no binding (tested: 32 µM (concentration given for FIG. 1)) | – | – | 17.9 nM | 70 nM | – | –
FVYNPTTFQLEMNFNAK (also: tetrameric dendrimer: four monomers coupled to a lysine backbone, also called 4DL) [Inherbin4 peptide, tetrameric dendrimer] | – | – | – | – | 19.9 nM | 297 nM | 43 nM | 90.4 nM
